Experimental data as given in PMC6765112, “Specificity of MYB interactions relies on motifs in ordered and disordered contexts” (Nucleic Acids Research, 2019).
Substitutions are numbered along the chain they refer to. Numbers in names are those of the source. Ends that are not written are not given here.

B1: MYB29 non-MYB region (G120-I336): non-MYB region of MYB29 (G120-I336) (protein)
chain: GIDPVTHKPLAYDSNPDEQSQSGSISPKSLPPSSSKNVPEITSSDETPKYDASLSSKKRCFKRSSSTSKLLNKVAARASSMGTILGASIEGTLISSTPLSSCLNDDFSETSQFQMEEFDPFYQSSEHIIDHMKEDISINNSEYDFSQFLEQFSNNEGEEADNTGGGYNQDLLMSDVSSTSVDEDEMMQNITGWSNYLLDHSDFNYDTSQDYDDKNFI
modifications: left off: NubG and FRB (from the vector pFRB), end not stated, kept
B2: MYB47: R2R3 MYB TF containing 165LLNKLA170 (protein)
chain: MGRTTWFDVDGMKKGEWTAEEDQKLGAYINEHGVCDWRSLPKRAGLQRCGKSCRLRWLNYLKPGIRRGKFTPQEEEEIIQLHAVLGNRWAAMAKKMQNRTDNDIKNHWNSCLKKRLSRKGIDPMTHEPIIKHLTVNTTNADCGNSSTTTSPSTTESSPSSGSSRLLNKLAAGISSRQHSLDRIKYILSNSIIESSDQAKEEEEKEEEEEERDSMMGQKIDGSEGEDIQIWGEEEVRRLMEIDAMDMYEMTSYDAVMYESSHILDHLF
modifications: left off: NubG and FRB (from the vector pFRB), end not stated, kept
notes: R2R3 MYB TF containing 165LLNKLA170
B3: MYB29 DBD (residues M1-H126): DBD of MYB29 (residues M1-H126) (protein)
chain: MSRKPCCVGEGLKKGAWTAEEDKKLISYIHEHGEGGWRDIPQKAGLKRCGKSCRLRWANYLKPDIKRGEFSYEEEQIIIMLHASRGNKWSVIARHLPKRTDNEIKNYWNTHLKKLLIDKGIDPVTH
modifications: left off: NubG and FRB (from the vector pFRB), end not stated, kept
B4: MYB21: MYB TF from subgroup 19 (protein)
chain: MEKRGGGSSGGSGSSAEAEVRKGPWTMEEDLILINYIANHGDGVWNSLAKSAGLKRTGKSCRLRWLNYLRPDVRRGNITPEEQLIIMELHAKWGNRWSKIAKHLPGRTDNEIKNFWRTRIQKYIKQSDVTTTSSVGSHHSSEINDQAASTSSHNVFCTQDQAMETYSPTPTSYQHTNMEFNYGNYSAAAVTATVDYPVPMTVDDQTGENYWGMDDIWSSMHLLNGN
modifications: left off: NubG and FRB (from the vector pFRB), end not stated, kept
B5: L190F: mutated MYB29 (AAs 120-222); MIM sequence - S TS KL FNK VA ARA SS - (protein)
chain: GIDPVTHKPLAYDSNPDEQSQSGSISPKSLPPSSSKNVPEITSSDETPKYDASLSSKKRCFKRSSSTSKLFNKVAARASSMGTILGASIEGTLISSTPLSSCL
modifications: left off: NubG and FRB (from the vector pFRB), end not stated, kept
B6: N191L: mutated MYB29 (AAs 120-222); MIM sequence - S TS KL LLK VA ARA SS - (protein)
chain: B5 chain with F71L, N72L
modifications: left off: NubG and FRB (from the vector pFRB), end not stated, kept
B7: N191Q: mutated MYB29 (AAs 120-222); MIM sequence - S TS KL LQK VA ARA SS - (protein)
chain: B5 chain with F71L, N72Q
modifications: left off: NubG and FRB (from the vector pFRB), end not stated, kept
B8: MYB51: MYB TF from subgroup 12, containing a MIM (protein)
chain: MVRTPCCKAELGLKKGAWTPEEDQKLLSYLNRHGEGGWRTLPEKAGLKRCGKSCRLRWANYLRPDIKRGEFTEDEERSIISLHALHGNKWSAIARGLPGRTDNEIKNYWNTHIKKRLIKKGIDPVTHKGITSGTDKSENLPEKQNVNLTTSDHDLDNDKAKKNNKNFGLSSASFLNKVANRFGKRINQSVLSEIIGSGGPLASTSHTTNTTTTSVSVDSESVKSTSSSFAPTSNLLCHGTVATTPVSSNFDVDGNVNLTCSSSTFSDSSVNNPLMYCDNFVGNNNVDDEDTIGFSTFLNDEDFMMLEESCVENTAFMKELTRFLHEDENDVVDVTPVYERQDLFDEIDNYFG
modifications: left off: NubG and FRB (from the vector pFRB), end not stated, kept
notes: MYB TF from subgroup 12, containing a MIM
B9: MYB29 mut: MYB29 with mutations to abolish the MIM: L190K, K192N and A194Y (protein)
chain: MSRKPCCVGEGLKKGAWTAEEDKKLISYIHEHGEGGWRDIPQKAGLKRCGKSCRLRWANYLKPDIKRGEFSYEEEQIIIMLHASRGNKWSVIARHLPKRTDNEIKNYWNTHLKKLLIDKGIDPVTHKPLAYDSNPDEQSQSGSISPKSLPPSSSKNVPEITSSDETPKYDASLSSKKRCFKRSSSTSKLKNNVYARASSMGTILGASIEGTLISSTPLSSCLNDDFSETSQFQMEEFDPFYQSSEHIIDHMKEDISINNSEYDFSQFLEQFSNNEGEEADNTGGGYNQDLLMSDVSSTSVDEDEMMQNITGWSNYLLDHSDFNYDTSQDYDDKNFI
modifications: left off: NubG and FRB (from the vector pFRB), end not stated, kept
notes: MYB29 with mutations to abolish the MIM: L190K, K192N and A194Y
B10: MYB113: MYB TF from subgroup 6 (protein)
chain: MGESPKGLRKGTWTTEEDILLRQCIDKYGEGKWHRVPLRTGLNRCRKSCRLRWLNYLKPSIKRGKLCSDEVDLVLRLHKLLGNRWSLIAGRLPGRTANDVKNYWNTHLSKKHDERCCKTKMINKNITSHPTSSAQKIDVLKPRPRSFSDKNSCNDVNILPKVDVVPLHLGLNNNYVCESSITCNKDEQKDKLININLLDGDNMWWESLLEADVLGPEATETAKGVTLPLDFEQIWARFDEETLELN
modifications: left off: NubG and FRB (from the vector pFRB), end not stated, kept

Columns and labels:
MYC4 = assay: Split-ubiquitin assay, MYC4 as bait; format: cell-based, Arabidopsis thaliana; settings: yeast, SD-AHLW growth
Protocol: (§1) The rapamycin-compatible yeast strain NMY51 TOR1-1 Δfpr1 ([35]) was transformed according to DUALhunter™ kit instructions (Dualsystems biotech). Briefly, overnight 2×YPAD cultures were diluted to OD600 = 0.2, and incubated at 30°C, 150 RPM for 4–6 h in 2×YPAD, before harvesting the cells by centrifugation at 700 g for 5 min. The cells were washed with H2O, then 0.1 M LiOAc, before resuspending in 0.1 M LiOAc with 15% glycerol. The competent cells were then aliquoted and stored at −80°C until transformation. For double transformation with bait and prey plasmids, competent cells were thawed on ice, and mixed with transformation mix (240 μl 50% PEG-3350, 35 μl 1 M LiOAc and 25 μl 2 mg/ml ssDNA per transformation) and 200 ng of each plasmid, before being exposed to a 42°C heat shock in a water bath for 45 min. The cells were then chilled on ice for a few minutes, sedimented by centrifugation (3000 g, 1 min), resuspended in sterile H2O, plated on SD-LW plates and grown at 30°C for 2–3 days.
(§2) For drop tests, cells from three individual colonies of each bait/prey combination were grown overnight in liquid SD-LW media. Next day, culture densities were normalized to OD600 = 0.05, dilution series (OD600 = 0.05, OD600 = 0.005, OD600 = 0.0005 and OD600 = 0.00005) were spotted on square plates (SD-LW, SD-AHLW and SD-AHLW+Rapa) and grown for 2 days at 30°C before taking pictures.
(§3) To identify interaction sites mediating specific MYB–MYC complex formation, we selected two TFs from each family. These were MYB28 and MYB29 from MYB subgroup 12, and two of their partner bHLH TFs, MYC3 and MYC4. To define the region mediating the interactions we applied a chemically inducible dimerization split-ubiquitin system ([35]). […] This is used as an in-built positive control for correct expression and functionality of the prey fusion protein and thereby reduces the incidence of false negatives.

MYC3 = assay: Split-ubiquitin assay, MYC3 as bait; format: cell-based, Arabidopsis thaliana; settings: yeast, SD-AHLW growth
Protocol: as §1, §2, §3

Molecule	interaction with MYC4 (in words) (MYC4)	interaction with MYC3 (in words) (MYC3)
MYB29 (S175-L222): 47-residue fragment of MYB29 (S175-L222) (SKKRCFKRSSSTSKLLNKVAARASSMGTILGASIEGTLISSTPLSSCL; not fully specified; cysteine pairing not given here)	sufficient for the interaction	–
MYB32: MYB TF from subgroup 4	did not	did not
B1	mediated by the non-MYB region	–
B2	we could confirm those interactions	we could confirm those interactions
B3	neither sufficient, nor necessary for the interaction	–
B4	not able to reproduce the interaction	not able to reproduce the interaction
B5	weakly interacting	–
B6	weakly interacting	–
B7	weakly interacting	–
B8	interacted with both MYC3 and MYC4	interacted with both MYC3 and MYC4
B9	abolished interaction with MYC3 and MYC4	abolished interaction with MYC3 and MYC4
B10	did not	did not
